Experimental data published in paper PMC11569188 (2024).

Molecular target: Grb2 SH2 domain (BAP-tagged) (UniProt P62993 60-152, biotin on the BAP tag (in vivo biotinylation))
Experiment: FP

Grb2 SH2 domain (BAP-tagged), sequence (P62993 60-152): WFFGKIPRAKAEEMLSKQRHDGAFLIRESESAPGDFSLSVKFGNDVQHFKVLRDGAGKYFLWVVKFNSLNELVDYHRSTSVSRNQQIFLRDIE

B1: Affimer Grb2 A4 (designed binder)
chain: MASNSLEIEELARFAVDEHNKKENALLEFVRVVKAKEQHVLWENAGPTMYYLTLEAKDGGKKKLYEAKVWVKHTRYEYFVYNFKELQEFKPVGDAAAAHHHHHHHH
B1 gave an IC50 of 770 nM.
